Holding throughout (conditions): both partners purified
Assay [1] has as its target T1, huUHRF1-PHD(296–367), PHD finger of human UHRF1 with the additional N-terminal zinc finger (human, UniProt Q96T88 296-367).
T1 construct: Vector pHGGWA (Gateway); also called ICBP90 PHD finger
T1 sequence (looked up): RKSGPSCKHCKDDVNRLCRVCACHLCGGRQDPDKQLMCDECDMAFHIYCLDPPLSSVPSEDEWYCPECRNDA
The experiment in a line: ITC; 20°C; histone peptides (1–12Y, 1.5–2 mM) injected into huUHRF1-PHD (0.12–0.18 mM); 20 mM Tris pH 7, 150 mM NaCl, 0.5 mM TCEP, 25 µM ZnCl2, 0.1 mM PMSF.

For assay [2], the target named is T2, huUHRF1-PHD(296–367) D334A (human, UniProt Q96T88 296-367, D334A).
T2 sequence (looked up): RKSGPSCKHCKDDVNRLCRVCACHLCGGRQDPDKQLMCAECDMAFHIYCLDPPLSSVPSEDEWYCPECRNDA
The description is as above.

Assay [3] has as its target T3, huUHRF1-PHD(296–367) D337A (human, UniProt Q96T88 296-367, D337A).
T3 sequence (looked up): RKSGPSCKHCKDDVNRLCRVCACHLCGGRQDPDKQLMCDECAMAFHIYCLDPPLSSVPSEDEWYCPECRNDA
Described as above.

Assay [4] deals with T1, huUHRF1-PHD(296–367), PHD finger of …. The assay can be described thus: crystal structure; huUHRF1-PHD(296–367) at 606 µM with a 10-fold excess of H3 peptide (1–8); vapor diffusion at 17°C, 0.1 M Tris pH 8.5, 0.2 M MgCl2, 30% PEG 4000; 1.95 Å.

Where no end group is shown, it is not given here. Me3 = trimethyl-lysine A value given as a limit tells only on which side of the number the result lay.

B1: histone H3 peptide (1–12Y), unmodified (peptide)
peptide: ARTKQTARKSTGY
notes: histone H3 N-terminal tail, residues 1-12; tyrosine after residue 12, read from the label '1–12Y'; also called unmodified H3; H3K4me0
As for B1, the equilibrium dissociation constant (Kd) (usually a measure of binding affinity in units of concentration) in assay [1] was 7.9 µM; in assay [2], > 500 µM; in assay [3], ~70 µM. For the same molecule, the dH in assay [1] is -73.6 kJ/mol.

B2: histone H3 peptide (1–12Y) with K4 mutated to alanine (peptide)
peptide: ARTAQTARKSTGY
notes: histone H3 N-terminal tail, residues 1-12 with K4A; tyrosine after residue 12, read from the label '1–12Y'; also called H3K4A
In the case of B2, in assay [1], binding was put at a Kd of 17 µM and the dH is -59 kJ/mol.

B3: short histone H3 peptide including residues 1–8, unmodified (peptide, UniProt P68431 2-9, looked up)
peptide: ARTKQTAR
notes: histone H3 N-terminal tail, residues 1-8 (five of the eight seen in the map); also called unmodified histone H3 peptide; histone H3 tail
Consider B3, for which the binding result in assay [4] is listed as “binds”.

B4: histone H3 peptide (1–12Y) with trimethylated K4 (peptide)
peptide: ARTK(Me3)QTARKSTGY
notes: histone H3 N-terminal tail, residues 1-12; tyrosine after residue 12, read from the label '1–12Y'; also called H3K4me3
For the molecule B4, in assay [1], binding was characterised by a dissociation constant (Kd) of 25.9 µM and the dH is -48.5 kJ/mol.
